Target: Transforming Growth Factor Beta Receptor II (TGFBRII) (human) (UniProt P37173)
Test: cell-based or functional assay

Sequence of Transforming Growth Factor Beta Receptor II (TGFBRII) (human) (P37173 23-567): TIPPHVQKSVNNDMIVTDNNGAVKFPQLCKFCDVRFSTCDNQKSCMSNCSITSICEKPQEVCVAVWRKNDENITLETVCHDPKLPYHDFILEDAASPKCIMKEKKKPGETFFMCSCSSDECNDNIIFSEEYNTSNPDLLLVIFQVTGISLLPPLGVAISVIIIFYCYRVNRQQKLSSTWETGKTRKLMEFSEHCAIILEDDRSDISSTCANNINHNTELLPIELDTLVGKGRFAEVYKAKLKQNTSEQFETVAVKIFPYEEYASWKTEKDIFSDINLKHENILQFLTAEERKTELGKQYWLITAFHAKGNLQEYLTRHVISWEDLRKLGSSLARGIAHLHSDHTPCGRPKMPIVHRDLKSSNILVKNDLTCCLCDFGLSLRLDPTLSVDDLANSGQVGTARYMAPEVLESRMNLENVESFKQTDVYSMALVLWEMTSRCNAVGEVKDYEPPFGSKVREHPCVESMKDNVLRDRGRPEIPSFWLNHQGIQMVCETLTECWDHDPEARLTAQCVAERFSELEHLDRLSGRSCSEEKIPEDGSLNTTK

CAR T cell expansion (cell number over time) with 10, 20, 50 and 100 ng/ml TGF-β: < 10 ng/mL
Substance: recombinant human TGF-β (from UniProt P28072 35-239) (ligand)

— patent publication US20220090012A1
